{"source": "patent US20140348819A1", "about": "“Methods of Treating Cancer” (Dana-Farber Cancer Institute, Inc., priority 2011, published 2014)", "molecules": {"B1": {"name": "GDNF (protein, UniProt P39905 78-211, looked up)", "Glial cell line-derived …": "SPDKQMAVLPRRERNRQAAAANPENSRGKGRRGQRGKNRGCVLTAIHLNVTDLGLGYETKEELIFRYCSGSCDAAETTYDKILKNLSRNRRLVSDKVGQACCRPIAFDDDLSFLDDNLVYHILRKHSAKRCGCI"}}, "tested_on": "six V600E BRAF melanoma cell lines", "test": "Screening of recombinant RTK ligands for ability to confer resistance to BRAFi (PLX4720) or MEKi (PD184352) (Table 4)", "format": "cell-based, human", "set-up": "ability of recombinant RTK ligand to confer resistance / ability of recombinant RTK ligand to confer resistance (screening value): scale not given here", "outline": "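Resistance to BRAFi (PLX4720) or MEKi (PD184352) was tested in six V600E BRAF melanoma lines given one of 22 recombinant RTK ligands. For a subset of RTKs, activation was checked by high-throughput tyrosine kinase phosphorylation profiling and western blot.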"}
{"molecule": "B1", "values": [{"measurement": "ability of recombinant RTK ligand to confer resistance", "setting": "A2058, PD184352 - 1 uM, ligand 0.4 ng/ml", "value": 0.98}, {"measurement": "ability of recombinant RTK ligand to confer resistance", "setting": "A2058, PD184352 - 1 uM, ligand 1.6 ng/ml", "value": 1.03}, {"measurement": "ability of recombinant RTK ligand to confer resistance", "setting": "A2058, PD184352 - 1 uM, ligand 6.25 ng/ml", "value": 1.00}, {"measurement": "ability of recombinant RTK ligand to confer resistance", "setting": "A2058, PD184352 - 1 uM, ligand 25 ng/ml", "value": 0.93}, {"measurement": "ability of recombinant RTK ligand to confer resistance", "setting": "A2058, PD184352 - 1 uM, ligand 100 ng/ml", "value": 0.92}, {"measurement": "ability of recombinant RTK ligand to confer resistance", "setting": "A2058, PLX4720 - 2 uM, ligand 0.4 ng/ml", "value": 0.97}, {"measurement": "ability of recombinant RTK ligand to confer resistance", "setting": "A2058, PLX4720 - 2 uM, ligand 1.6 ng/ml", "value": 0.97}, {"measurement": "ability of recombinant RTK ligand to confer resistance", "setting": "A2058, PLX4720 - 2 uM, ligand 6.25 ng/ml", "value": 0.98}, {"measurement": "ability of recombinant RTK ligand to confer resistance", "setting": "A2058, PLX4720 - 2 uM, ligand 25 ng/ml", "value": 0.94}, {"measurement": "ability of recombinant RTK ligand to confer resistance", "setting": "A2058, PLX4720 - 2 uM, ligand 100 ng/ml", "value": 0.97}, {"measurement": "ability of recombinant RTK ligand to confer resistance", "setting": "C32, PD184352 - 1 uM, ligand 0.4 ng/ml", "value": 1.08}, {"measurement": "ability of recombinant RTK ligand to confer resistance", "setting": "C32, PD184352 - 1 uM, ligand 1.6 ng/ml", "value": 1.13}, {"measurement": "ability of recombinant RTK ligand to confer resistance", "setting": "C32, PD184352 - 1 uM, ligand 6.25 ng/ml", "value": 1.03}, {"measurement": "ability of recombinant RTK ligand to confer resistance", "setting": "C32, PD184352 - 1 uM, ligand 25 ng/ml", "value": 0.96}, {"measurement": "ability of recombinant RTK ligand to confer resistance", "setting": "C32, PD184352 - 1 uM, ligand 100 ng/ml", "value": 0.94}, {"measurement": "ability of recombinant RTK ligand to confer resistance", "setting": "C32, PLX4720 - 2 uM, ligand 0.4 ng/ml", "value": 1.04}, {"measurement": "ability of recombinant RTK ligand to confer resistance", "setting": "C32, PLX4720 - 2 uM, ligand 1.6 ng/ml", "value": 1.11}, {"measurement": "ability of recombinant RTK ligand to confer resistance", "setting": "C32, PLX4720 - 2 uM, ligand 6.25 ng/ml", "value": 1.03}, {"measurement": "ability of recombinant RTK ligand to confer resistance", "setting": "C32, PLX4720 - 2 uM, ligand 25 ng/ml", "value": 0.91}, {"measurement": "ability of recombinant RTK ligand to confer resistance", "setting": "C32, PLX4720 - 2 uM, ligand 100 ng/ml", "value": 0.94}, {"measurement": "ability of recombinant RTK ligand to confer resistance", "setting": "Colo 829, PD184352 - 1 uM, ligand 0.4 ng/ml", "value": 0.95}, {"measurement": "ability of recombinant RTK ligand to confer resistance", "setting": "Colo 829, PD184352 - 1 uM, ligand 1.6 ng/ml", "value": 0.96}, {"measurement": "ability of recombinant RTK ligand to confer resistance", "setting": "Colo 829, PD184352 - 1 uM, ligand 6.25 ng/ml", "value": 0.96}, {"measurement": "ability of recombinant RTK ligand to confer resistance", "setting": "Colo 829, PD184352 - 1 uM, ligand 25 ng/ml", "value": 1.07}, {"measurement": "ability of recombinant RTK ligand to confer resistance", "setting": "Colo 829, PD184352 - 1 uM, ligand 100 ng/ml", "value": 0.98}, {"measurement": "ability of recombinant RTK ligand to confer resistance", "setting": "Colo 829, PLX4720 - 2 uM, ligand 0.4 ng/ml", "value": 1.00}, {"measurement": "ability of recombinant RTK ligand to confer resistance", "setting": "Colo 829, PLX4720 - 2 uM, ligand 1.6 ng/ml", "value": 1.00}, {"measurement": "ability of recombinant RTK ligand to confer resistance", "setting": "Colo 829, PLX4720 - 2 uM, ligand 6.25 ng/ml", "value": 0.96}, {"measurement": "ability of recombinant RTK ligand to confer resistance", "setting": "Colo 829, PLX4720 - 2 uM, ligand 25 ng/ml", "value": 1.09}, {"measurement": "ability of recombinant RTK ligand to confer resistance", "setting": "Colo 829, PLX4720 - 2 uM, ligand 100 ng/ml", "value": 1.00}, {"measurement": "ability of recombinant RTK ligand to confer resistance", "setting": "G-361, PD184352 - 1 uM, ligand 0.4 ng/ml", "value": 1.00}, {"measurement": "ability of recombinant RTK ligand to confer resistance", "setting": "G-361, PD184352 - 1 uM, ligand 1.6 ng/ml", "value": 0.94}, {"measurement": "ability of recombinant RTK ligand to confer resistance", "setting": "G-361, PD184352 - 1 uM, ligand 6.25 ng/ml", "value": 1.04}, {"measurement": "ability of recombinant RTK ligand to confer resistance", "setting": "G-361, PD184352 - 1 uM, ligand 25 ng/ml", "value": 0.92}, {"measurement": "ability of recombinant RTK ligand to confer resistance", "setting": "G-361, PD184352 - 1 uM, ligand 100 ng/ml", "value": 0.95}, {"measurement": "ability of recombinant RTK ligand to confer resistance", "setting": "G-361, PLX4720 - 2 uM, ligand 0.4 ng/ml", "value": 0.94}, {"measurement": "ability of recombinant RTK ligand to confer resistance", "setting": "G-361, PLX4720 - 2 uM, ligand 1.6 ng/ml", "value": 0.94}, {"measurement": "ability of recombinant RTK ligand to confer resistance", "setting": "G-361, PLX4720 - 2 uM, ligand 6.25 ng/ml", "value": 0.93}, {"measurement": "ability of recombinant RTK ligand to confer resistance", "setting": "G-361, PLX4720 - 2 uM, ligand 25 ng/ml", "value": 0.87}, {"measurement": "ability of recombinant RTK ligand to confer resistance", "setting": "G-361, PLX4720 - 2 uM, ligand 100 ng/ml", "value": 0.79}, {"measurement": "ability of recombinant RTK ligand to confer resistance", "setting": "SK-MEL-5, PD184352 - 1 uM, ligand 0.4 ng/ml", "value": 0.99}, {"measurement": "ability of recombinant RTK ligand to confer resistance", "setting": "SK-MEL-5, PD184352 - 1 uM, ligand 1.6 ng/ml", "value": 0.89}, {"measurement": "ability of recombinant RTK ligand to confer resistance", "setting": "SK-MEL-5, PD184352 - 1 uM, ligand 6.25 ng/ml", "value": 1.03}, {"measurement": "ability of recombinant RTK ligand to confer resistance", "setting": "SK-MEL-5, PD184352 - 1 uM, ligand 25 ng/ml", "value": 0.94}, {"measurement": "ability of recombinant RTK ligand to confer resistance", "setting": "SK-MEL-5, PD184352 - 1 uM, ligand 100 ng/ml", "value": 0.93}, {"measurement": "ability of recombinant RTK ligand to confer resistance", "setting": "SK-MEL-5, PLX4720 - 2 uM, ligand 0.4 ng/ml", "value": 1.04}, {"measurement": "ability of recombinant RTK ligand to confer resistance", "setting": "SK-MEL-5, PLX4720 - 2 uM, ligand 1.6 ng/ml", "value": 0.71}, {"measurement": "ability of recombinant RTK ligand to confer resistance", "setting": "SK-MEL-5, PLX4720 - 2 uM, ligand 6.25 ng/ml", "value": 1.00}, {"measurement": "ability of recombinant RTK ligand to confer resistance", "setting": "SK-MEL-5, PLX4720 - 2 uM, ligand 25 ng/ml", "value": 1.01}, {"measurement": "ability of recombinant RTK ligand to confer resistance", "setting": "SK-MEL-5, PLX4720 - 2 uM, ligand 100 ng/ml", "value": 1.08}, {"measurement": "ability of recombinant RTK ligand to confer resistance", "setting": "SK-MEL-28, PD184352 - 1 uM, ligand 0.4 ng/ml", "value": 0.99}, {"measurement": "ability of recombinant RTK ligand to confer resistance", "setting": "SK-MEL-28, PD184352 - 1 uM, ligand 1.6 ng/ml", "value": 1.03}, {"measurement": "ability of recombinant RTK ligand to confer resistance", "setting": "SK-MEL-28, PD184352 - 1 uM, ligand 6.25 ng/ml", "value": 1.02}, {"measurement": "ability of recombinant RTK ligand to confer resistance", "setting": "SK-MEL-28, PD184352 - 1 uM, ligand 25 ng/ml", "value": 0.92}, {"measurement": "ability of recombinant RTK ligand to confer resistance", "setting": "SK-MEL-28, PD184352 - 1 uM, ligand 100 ng/ml", "value": 0.96}, {"measurement": "ability of recombinant RTK ligand to confer resistance", "setting": "SK-MEL-28, PLX4720 - 2 uM, ligand 0.4 ng/ml", "value": 1.04}, {"measurement": "ability of recombinant RTK ligand to confer resistance", "setting": "SK-MEL-28, PLX4720 - 2 uM, ligand 1.6 ng/ml", "value": 0.91}, {"measurement": "ability of recombinant RTK ligand to confer resistance", "setting": "SK-MEL-28, PLX4720 - 2 uM, ligand 6.25 ng/ml", "value": 1.05}, {"measurement": "ability of recombinant RTK ligand to confer resistance", "setting": "SK-MEL-28, PLX4720 - 2 uM, ligand 25 ng/ml", "value": 0.97}, {"measurement": "ability of recombinant RTK ligand to confer resistance", "setting": "SK-MEL-28, PLX4720 - 2 uM, ligand 100 ng/ml", "value": 1.01}]}
